How the values were obtained:
HIF-1α PAS-B domain [1] = molecular target: HIF-1α PAS-B domain (UniProt Q16665); experiment: MST (microscale thermophoresis), labelled HIF-1α PAS-B [part 4 of 4]
HIF-1α PAS-B domain [2] = molecular target: HIF-1α PAS-B domain (UniProt Q16665); experiment: MST (microscale thermophoresis), labelled HIF-1α PAS-B [part 3 of 4]
HIF-1α PAS-B domain [3] = molecular target: HIF-1α PAS-B domain (UniProt Q16665); experiment: MST (microscale thermophoresis), labelled HIF-1α PAS-B [part 2 of 4]
HIF-1α PAS-B domain [4] = molecular target: HIF-1α PAS-B domain (UniProt Q16665); experiment: MST (microscale thermophoresis), labelled HIF-1α PAS-B [part 1 of 4) B]
HIF-1α PAS-B domain [5] = molecular target: HIF-1α PAS-B domain (UniProt Q16665); experiment: MST
His-HIF-1α PAS-B domain = His-HIF-1α PAS-B domain (UniProt Q16665); experiment: competition ELISA: inhibition of FLAG-HIF-1β PAS-B binding to plate-bound His-HIF-1α PAS-B
Chain of His-HIF-1α PAS-B domain (Q16665 238-349 limits assumed): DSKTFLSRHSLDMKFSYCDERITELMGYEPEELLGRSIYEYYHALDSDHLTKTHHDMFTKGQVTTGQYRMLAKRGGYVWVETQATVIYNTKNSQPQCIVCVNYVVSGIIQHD

HIF-1α PAS-B domain [6] = molecular target: HIF-1α PAS-B domain (UniProt Q16665); experiment: MST (microscale thermophoresis), labelled HIF-1α PAS-B [part 3 of 14) B]

Chain of HIF-1α PAS-B domain (Q16665 238-349 limits assumed): as above

Q: With “Cyclo-CLLF(CF3)-hL-F(Br) (Cys leu leu phe(CF3) h-leu phe(4-Br)) (peptide)” as the substance, how does the Kd (HIF-1α PAS-B domain [1]) read?
A: Its Kd is 0.735 µM.

Q: How did the EC50 (read off the curve) (HIF-1α PAS-B domain [2]) turn out when Cyclo-CL-Prop-F(CF3)IF(Br) (peptide) was run?
A: The EC50 (read off the curve) was 1 µM.

Q: How did the Kd (HIF-1α PAS-B domain [3]) turn out when Cyclo-CLLF(CF3)-Prop-F(Br) (peptide) was run?
A: Its Kd is 1.16 µM.

Q: How did the Kd (HIF-1α PAS-B domain [3]) turn out when Cyclo-CLLF(CF3)-NV-F(Br) (peptide) was run?
A: Its Kd is 22.4 µM.

Q: For Cyclo-CL-Aib-F(CF3)IF(Br) (peptide), which EC50 (read off the curve) (HIF-1α PAS-B domain [4]) is on record?
A: Its EC50 (read off the curve) is 2 µM.

Q: Which Kd (HIF-1α PAS-B domain [2]) does the source give for Cyclo-CLLF(CF3)-Aib-F(Br) (peptide) here?
A: Its Kd is 1.92 µM.

Q: With Cyclo-CLLF(CF3)-NL-F(Br) (peptide) as the substance, how does the Kd (HIF-1α PAS-B domain [1]) read?
A: The Kd was 1.03 µM.

Q: What does the source list for “cyclo-CK-NL-F(CF3)IF(Br) (Cys lys n-leu phe(CF3) ile phe(4-Br)) (peptide)”?
A: Kd (HIF-1α PAS-B domain [5]): 1.66 µM; IC50 (His-HIF-1α PAS-B domain): 27.7 µM

Q: Which EC50 (read off the curve) (HIF-1α PAS-B domain [3]) does the source give for Cyclo-CL-NV-F(CF3)IF(Br) (peptide) here?
A: Its EC50 (read off the curve) is 0.6 µM.

Q: Which EC50 (read off the curve) (HIF-1α PAS-B domain [2]) does the source give for Cyclo-CL-hL-F(CF3)IF(Br) (peptide) here?
A: Its EC50 (read off the curve) is 0.7 µM.

Q: With “Cyclo-CL-NL-F(CF3)IF(Br) (Cys leu n-leu phe(CF3) ile phe(4-Br)) (peptide)” as the substance, how does the EC50 (read off the curve) (HIF-1α PAS-B domain [1]) read?
A: Its EC50 (read off the curve) is 0.5 µM.

Q: For Cyclo-CLLY(Me)VY (peptide), which Kd (HIF-1α PAS-B domain [6]) is on record?
A: The Kd was > 200 µM.
